This data set can be described thus: protein stability index of a GFP-peptide fusion (GPS, HEK-293T) (PSI 1-6); higher = more stable.
Setting [1] is: treatment: DMSO, c terminus: a fixed tail appended.
The mark [2] stands for this setting: treatment: MLN4924 1 uM, 8 h, c terminus: a fixed tail appended.

± gives the standard deviation.
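Further: 24-mer peptide tiles fused after GFP, lentivirally expressed, FACS-sorted into six equal bins by GFP/DsRed ratio, decoded by Illumina sequencing, PSI is the read-weighted mean bin number.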

In the case of LEFRSFWELIGEAAKSVKLERPVR [S100A14], the protein stability index worked out at 1.87 ± 0.2 under setting [1] and 2.33 ± 0.35 under setting [2]. Taken in the same sequence, the figures for LELIEPLIKFQVGLKKLNLHEEEH [VDR] were 2.73 ± 0.21 and 2.9 ± 0.42. Taken in the same sequence, the figures for LELQRQREARKRALARKQAQEQLR [RSPH3] were 3.95 ± 0.31 and 4.06 ± 0.49. The sequence LESTLAETEARYSSQLAQMQCLIS [KRT36] yielded a protein stability index under setting [1] of 3.08 ± 0.17 and a protein stability index under setting [2] of 3.18 ± 0.32. LETQAQVCQALAQVDGGANFSVDR [CPOX]: the protein stability index by setting is: under setting [1], 4.85 ± 0.18; under setting [2], 4.96 ± 0.14.

In the case of LEVADFLIKAGADIELGCSTPLME [ANKRD17], the protein stability index is, setting by setting: under setting [1], 2.89 ± 0.56; under setting [2], 2.82 ± 0.22. On to LFEAGDATLASDLQDWASVGAFL [FOXJ1], for which the protein stability index (treatment: DMSO, c terminus: native) was 3.59 ± 0.15 and the protein stability index (treatment: MLN4924 1 uM, 8 h, c terminus: native) came out at 3.49 ± 0.34.

Regarding LFLMDLSEGELGGPSEPGGTHPED [RHOBTB2], the protein stability index by setting is: under setting [1], 4.45 ± 0.22; under setting [2], 4.33 ± 0.23. For the sequence LGDCMRTLGYMPTEMELLEVSQHI [CABP4], the protein stability index is, setting by setting: under setting [1], 2.46 ± 0.31; under setting [2], 2.57 ± 0.23. In the case of LGPVPREDQAEAWGCSCCPPETKH [TSPAN10], the protein stability index is 4.91 ± 0.083 under setting [1] and 4.97 ± 0.32 under setting [2]. Taken in the same sequence, the figures for LGRPDSLELQRQREARKRALARKQ [RSPH3] were 4.6 ± 0.17 and 4.43 ± 0.19. Consider LHIPMYFFLAILSCSEICYTFIIV [OR10K2], for which the protein stability index under setting [1] stood at 3.65 ± 0.48 and the protein stability index under setting [2] is 3.18 ± 0.38. Taken in the same sequence, the figures for LHVKRSMGWKKACDELELHQRFLR [ZMYND11] were 2.31 ± 0.12 and 2.55 ± 0.45. LIFFGGYGYLPEDKVLGTFEFDET [KLHDC2]: the protein stability index runs as follows: under setting [1], 2.13 ± 0.66; under setting [2], 2.6 ± 0.73. Taken in the same sequence, the figures for LIIFDKQSSQRMRQNLKLLVEETS [CEP70] were 2.1 ± 0.25 and 2.04 ± 0.35. Taken in the same sequence, the figures for LILASELSRLSVNSVTAGDYSRPL [TSN] were 2.45 ± 0.33 and 2.37 ± 0.19. Regarding LIVHIALPSWADICTNLCEALQNF [M1AP], the protein stability index reads like this: under setting [1], 3.02 ± 0.56; under setting [2], 3.09 ± 0.24. LKKSRGKFIKPWESPDEMELDELL [PTPRD] gave a protein stability index under setting [1] of 3.52 ± 0.35 and a protein stability index under setting [2] of 3.15 ± 0.44. On to LKKYLEPRCPRMVLSLKEGAREED [FBXO3], for which the protein stability index runs as follows: under setting [1], 4.56 ± 0.34; under setting [2], 4.19 ± 0.41. Taken in the same sequence, the figures for LKSMDKNGTMTIDWNEWRDYHLLH [SLC25A25] were 2.27 ± 0.05 and 2.19 ± 0.28. Taken in the same sequence, the figures for LLDEIVPVYRRDCHEEVYAGSHQY [ACBD3] were 3.03 ± 0.13 and 3.13 ± 0.26. Take LLEATCPFGENAEFPADISSITEA [NFE2L1]: the protein stability index under setting [1] is 4.48 ± 0.28 and the protein stability index under setting [2] was determined as 4.65 ± 0.17. Regarding LLHLDLKPANILLDAHYHVKISDF [RIPK4], the protein stability index stood at 2.45 ± 0.32 under setting [1] and 2.36 ± 0.48 under setting [2].

For LLIVKLEEDCAWSQELPPPDPGPS [ZNF263], the protein stability index turned out to be 2.33 ± 0.29 under setting [1] and 2.42 ± 0.29 under setting [2]. Taken in the same sequence, the figures for LLLELKGLQEEPVEGFRVTLVDEG [CDC34] were 2.64 ± 0.29 and 2.66 ± 0.21. Taken in the same sequence, the figures for LLLEMLTFNPHKRISAFRALQHSY [CDK4] were 2.43 ± 0.32 and 2.41 ± 0.25. Taken in the same sequence, the figures for LLLLSKAKLVPSEREASPSNSCQD [IKZF1] were 3.31 ± 0.099 and 3.14 ± 0.15. With LLMIPWGSAAKLVCYFTNWAQYRQ [CHIT1], the protein stability index is 3.04 ± 0.69 under setting [1] and 2.86 ± 0.68 under setting [2]. Taken in the same sequence, the figures for LLSCLSKSNNRLKSLSIQYLELDR [FBXO39] were 2.54 ± 0.37 and 2.01 ± 0.33. Turning to LLVINESIESIKWMIEEKATITSR [LURAP1L], the protein stability index by setting is: under setting [1], 2.38 ± 0.24; under setting [2], 2.51 ± 0.3. Taken in the same sequence, the figures for LNERKQASAIKKEELVARSETHAA [CHGB] were 5.48 ± 0.22 and 5 ± 0.23. Taken in the same sequence, the figures for LNFCGPNVINHFYCDLPQLFQLSC [OR3A1] were 2.83 ± 0.51 and 2.6 ± 0.71. Take LNLTEGFAVLHWKPPQNPVDTYDV [TNXB]: the protein stability index amounted to 2.5 ± 0.66 under setting [1] and 2.69 ± 0.45 under setting [2].

As to LNQKTSEKMKKRKMSNSFHGIRPP [RHOBTB3], the protein stability index by setting is: under setting [1], 3.95 ± 0.34; under setting [2], 4.23 ± 0.11. Taken in the same sequence, the figures for LNSMPKRLCLVCGDIASGYHYGVA [ESRRG] were 2.48 ± 0.22 and 2.23 ± 0.39. Taken in the same sequence, the figures for LNVTNYCHLAHELRLSCMERKKVQ [DCAF4] were 2.61 ± 0.19 and 2.36 ± 0.21. As for LPAVKVFLDWLRTNPDLIIVCAQS [SMG5], the protein stability index turned out to be 2.27 ± 0.47 under setting [1] and 2.41 ± 0.45 under setting [2]. Regarding LPFERLAFVLSSNSLKHCTELELF [KLHL13], the protein stability index under setting [1] was found to be 2.73 ± 0.6 and the protein stability index under setting [2] is 2.76 ± 0.62. Taken in the same sequence, the figures for LPFLAHALYVQAPTVTIEGFLQAL [TRIP13] were 2.93 ± 0.66 and 2.76 ± 0.51. As to LPSLGLPQYRSYFMECLVDARMLD [PPFIA4], the protein stability index is, setting by setting: under setting [1], 2.47 ± 0.46; under setting [2], 2.13 ± 0.38.

LPWFRTLSWYFLLCVNYFFYGETV [CDS1] gave a protein stability index under setting [1] of 3.08 ± 0.14 and a protein stability index under setting [2] of 3.38 ± 0.75. Regarding LPWLSLRALKFRERDALEAVFRFW [DNAAF3], the protein stability index runs as follows: under setting [1], 2.46 ± 0.24; under setting [2], 2.49 ± 0.28. Taken in the same sequence, the figures for LQKKVEQLSRELSTLRNLFKQLPE [CEBPB] were 2.3 ± 0.32 and 2.43 ± 0.41. Taken in the same sequence, the figures for LQNNCTSSITRQKKRLQELALALK [TMEM120A] were 2.79 ± 0.15 and 2.83 ± 0.4.

As to LQQIADFMTTNVPNVYPAAPQGGM [ADD1], the protein stability index was 3.3 ± 0.2 under setting [1] and 3.29 ± 0.17 under setting [2]. Taken in the same sequence, the figures for LQYSTQVHTEFTLRNFNSAKDMKK [MATN2] were 3.73 ± 0.3 and 4.08 ± 0.32. Taken in the same sequence, the figures for LRGLCANTVLRFLDLKGNNLRAAG [LRRC45] were 2.3 ± 0.24 and 2.24 ± 0.16.

For LRKGFSCVKNELLPSHPLELSEKN [POMP], the protein stability index reads like this: under setting [1], 3.61 ± 0.094; under setting [2], 3.75 ± 0.24. Consider LRKREKAEEKERRRKEYDALKAAK [LRRC59], for which the protein stability index was determined as 4.66 ± 0.4 under setting [1] and 4.79 ± 0.31 under setting [2]. LRQKGNRNTHKDLLRFAQVFSQMI [FEM1B] gave a protein stability index under setting [1] of 2.38 ± 0.56 and a protein stability index under setting [2] of 2.26 ± 0.32. Taken in the same sequence, the figures for LRREKPSEEMVKMVLSRPCHPDDQ [INTS3] were 4.61 ± 0.12 and 4.69 ± 0.15. Consider LRRKSPASGQGPMCNVKAPLGSPS [ADAMTS4], for which the protein stability index by setting is: under setting [1], 3.85 ± 0.2; under setting [2], 3.86 ± 0.46. Taken in the same sequence, the figures for LRSKLCSLYENDCIFDKFECVWNG [PPP2R2B] were 2.5 ± 0.34 and 2.42 ± 0.39.

With LRTYLARLPWAGQLTKELPLSPAF [PBXIP1], the protein stability index is, setting by setting: under setting [1], 2.22 ± 0.64; under setting [2], 2.16 ± 0.22. Taken in the same sequence, the figures for LSAFYLSYFDMLYPEDSSWAAKAP [SPDEF] were 2.63 ± 0.59 and 2.48 ± 0.52.

In turn, LSICFTCFKAAFLDFKDLLESEDW [TEX19] registered a protein stability index under setting [1] of 2.62 ± 0.5 and a protein stability index under setting [2] of 2.69 ± 0.39.

In the case of LSKSNKPIHTIILNPHVHLVGDDA [CAMK2D], the protein stability index came to 3.12 ± 0.3 under setting [1] and 2.95 ± 0.48 under setting [2].

Take LSMNWAIVADILLYVVIPTRRSTA [SPNS1]: the protein stability index runs as follows: under setting [1], 2.63 ± 0.62; under setting [2], 3.01 ± 0.77. LSPKKTWEGFIGGFFSTVVFGFIA [CDS1] yielded a protein stability index under setting [1] of 2.28 ± 0.47 and a protein stability index under setting [2] of 2.15 ± 0.63.

LSPSRGVAQCLRDLVAMQWADAAG [ZSWIM9] returned a protein stability index under setting [1] of 2.7 ± 0.17 and a protein stability index under setting [2] of 2.77 ± 0.28. Taken in the same sequence, the figures for LTGFSWRGGSDPETTGIQIWSEVF [ATL3] were 2.16 ± 0.33 and 1.59 ± 0.4. In turn, LVACCLADIFRIYAPEAPYTSPDK [PDS5B] came in with a protein stability index under setting [1] of 3.3 ± 1.4.

The sequence LVSGSQSALGPPPAASNSSDLFDL [CLINT1] registered a protein stability index under setting [1] of 4.43 ± 0.24 and a protein stability index under setting [2] of 4.34 ± 0.18. Take LWEKLAKQGELPREVRRAQARLLN [NOP53]: the protein stability index came out at 2.78 ± 0.12 under setting [1] and 2.82 ± 0.67 under setting [2]. Sequence LWTTSRVLKVLSVCSSNKPAIVEA [CTNNB1] returned a protein stability index under setting [1] of 2.21 ± 0.3 and a protein stability index under setting [2] of 2.08 ± 0.28. Taken in the same sequence, the figures for LYFQWYIFYFVIQRKKWVDLAWMI [FADS1] were 2.25 ± 0.7 and 3.09 ± 0.93. Taken in the same sequence, the figures for MAALNSQTAVQFQQYAAQQYPGNY [ACBD3] were 3.09 ± 0.38 and 3.16 ± 0.1. Consider MADSGLREPQEDSQKDLENDPSVN [TOR1AIP2], for which the protein stability index was 5.65 ± 0.19 under setting [1] and 5.57 ± 0.21 under setting [2].

On to MALLRKINQVLLFLLIVTLCVILY [GLT8D2], for which the protein stability index is, setting by setting: under setting [1], 2.12 ± 0.27; under setting [2], 2.11 ± 0.18. MAMTAGTTTTFPMSNHTRERVTVA [STK38L]: the protein stability index turned out to be 3.2 ± 0.36 under setting [1] and 3.28 ± 0.36 under setting [2]. Taken in the same sequence, the figures for MASGPGSQEREGLLIVKLEEDCAW [ZNF263] were 2.44 ± 0.36 and 2.28 ± 0.47.

For the sequence MASLLEDLSHIEGLSQAPQPLADE [SERTAD1], the protein stability index by setting is: under setting [1], 4.82 ± 0.092; under setting [2], 4.72 ± 0.1.
